Tests used:
Type in all cases: cell-based, human
[1] = tested on: wild-type and variant SNAP-GIPR; assay: Surface SNAP-GIPR expression (SNAP-tag labelling) in INS-1 cells; conditions: Fig 4G; Mean
In short: (§1)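 Read-out: whole-cell fluorescence of surface-only SNAP label (Alexa Fluor 647, 500 nM, 10 min, RT), wide-field 20X, several FOVs per well. Flat-field corrected, phase-contrast masked, nontransfected-well signal subtracted; normalized to experiment mean or wild-type.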

[2] = tested on: wild-type and variant SNAP-GIPR; assay: Constitutive and agonist-mediated internalization, reversible SNAP-tag labelling, INS-1 cells; design: key to Internalisation, GIP-only / Internalisation, Vehicle / Internalisation, +GIP: % internalization: residual fluorescence after Mesna vs pre-Mesna; conditions: Mean
In short: (§2)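 Percentage internalization calculated as specific SNAP fluorescence remaining after 10 min Mesna exposure, relative to pre-Mesna signal, imaged in TNE buffer (pH 8.6).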

[3] = tested on: wild-type and variant SNAP-GIPR; assay: Constitutive and agonist-mediated internalization, reversible SNAP-tag labelling, AD293 cells; design: key to Internalisation, Vehicle / Internalisation, +GIP / Internalisation, GIP-only: % internalization: residual fluorescence after Mesna vs pre-Mesna; Surface expression: unit not given here; conditions: Mean
In short: as §2

[4] = tested on: wild-type and variant SNAP-GIPR; assay: Single-concentration GIP cAMP response by HTRF in INS-1 cells; conditions: Fig S3E, mean
Description: (§3) All variants were tested in parallel on each occasion to control for transfection efficiency differences between experiments.

[5] = tested on: wild-type and variant SNAP-GIPR; assay: cADDis cAMP imaging in AD293 cells, ensemble, expression-matched and per decile; conditions: Fig S3F, cADDis, mean;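 note: Ensemble cells as % of IBMX/FSK response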
In short: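 AD293 cells were transfected with SNAP-GIPR constructs and cotransduced with the cADDis Green Up cAMP sensor, then labeled after 24 h with 500 nM SNAP-Surface Alexa Fluor 647. Per-cell cADDis intensity was tracked at 37°C in KRBH with 6 mM glucose and 0.1% BSA.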

[6] = tested on: wild-type and variant SNAP-GIPR; assay: Single-concentration GIP cAMP response by HTRF in AD293 cells; conditions: Fig S3F, HTRF, mean;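 note: ratio to experiment-wide average response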
Description: as §3

[7] = tested on: wild-type and variant SNAP-GIPR; assay: Surface SNAP-GIPR expression (SNAP-tag labelling) in AD293 cells; conditions: for AD293 Surface: Fig S3E, mean; for Surface SNAP-GIPR expression: sheet Fig 1C;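 for all read-outs here: scaled to the experimental average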
In short: as §1

B1: R404H (protein, UniProt P48546 22-466, looked up, variant R404H)
Gastric inhibitory …: RAETGSKGQTAGELYQRWERYRRECQETLAAAEPPSGLACNGSFDMYVCWDYAAPNATARASCPWYLPWHHHVAAGFVLRQCGSDGQWGLWRDHTQCENPEKNEAFLDQRLILERLQVMYTVGYSLSLATLLLALLILSLFRRLHCTRNYIHINLFTSFMLRAAAILSRDRLLPRPGPYLGDQALALWNQALAACRTAQIVTQYCVGANYTWLLVEGVYLHSLLVLVGGSEEGHFRYYLLLGWGAPALFVIPWVIVRYLYENTQCWERNEVKAIWWIIRTPILMTILINFLIFIRILGILLSKLRTRQMRCRDYRLRLARSTLTLVPLLGVHEVVFAPVTEEQARGALRFAKLGFEIFLSSFQGFLVSVLYCFINKEVQSEIHRGWHHCRLRRSLGEEQRQLPERAFRALPSGSGPGEVPTSRGLSSGTLPGPGNEASRELESYC
Surface expression [1]: 0.8156 | +GIP internalisation (100 nM) ([2]; Fig 4G, GIP 100 nM): 0.3918 | GIP-specific internalisation (100 nM) ([2]; Fig 4G, GIP 100 nM): 0.07675 | Constitutive internalisation (100 nM) ([2]; Fig 4G): 0.3151 | Internalisation, +GIP ([2]; Fig S4C, INS-1): 48.5 | Internalisation, GIP-only ([2]; Fig S4C, INS-1): 9.682 | Internalisation, Vehicle ([2]; Fig S4C, INS-1): 38.8183 | +GIP internalisation (100 nM) ([3]; Fig 4E, GIP 100 nM): 0.4112 | GIP-specific internalisation (100 nM) ([3]; Fig 4E, GIP 100 nM): 0.07509 | Constitutive internalisation (100 nM) ([3]; Fig 4E): 0.3361 | Surface expression ([3]; Fig 4E): 0.7754 | Internalisation, +GIP ([3]; Fig S4C, AD293): 56.8624 | Internalisation, GIP-only ([3]; Fig S4C, AD293): 10.8785 | Internalisation, Vehicle ([3]; Fig S4C, AD293): 45.9839 | INS-1 cAMP (100 nM) [4]: 0.9867 | AD293 100 pM cADDis ([5]; AD293, 100 pM): 26.6869 | AD293 100 nM cADDis ([5]; AD293, 100 nM): 37.59 | AD293 100 pM HTRF ([6]; AD293, 100 pM): 0.3628 | AD293 100 nM HTRF ([6]; AD293, 100 nM): 1.255 | AD293 Surface ([7]; column repeated, paired with cAMP 100 nM): 0.7424 | AD293 Surface ([7]; paired with cAMP 100 pM): 0.7424 | Surface SNAP-GIPR expression ([7]; replicate 1): 0.7731 | Surface SNAP-GIPR expression ([7]; replicate 2): 0.8601 | Surface SNAP-GIPR expression ([7]; replicate 3): 1.364 | Surface SNAP-GIPR expression ([7]; replicate 4): 1.202 | Surface SNAP-GIPR expression ([7]; replicate 5): 0.6596 | Surface SNAP-GIPR expression ([7]; replicate 6): 0.8044 | Surface SNAP-GIPR expression ([7]; replicate 7): 1.014 | Surface SNAP-GIPR expression ([7]; replicate 8): 0.8566 | Surface SNAP-GIPR expression ([7]; replicate 9): 0.836 | Surface SNAP-GIPR expression ([7]; replicate 10): 0.8174 | Surface SNAP-GIPR expression ([7]; replicate 11): 0.6917 | Surface SNAP-GIPR expression ([7]; replicate 12): 0.5756 | Surface SNAP-GIPR expression ([7]; replicate 13): 0.812 | Surface SNAP-GIPR expression ([7]; replicate 14): 0.5735 | Surface SNAP-GIPR expression ([7]; replicate 15): 0.518 | Surface SNAP-GIPR expression ([7]; replicate 16): 0.5844 | Surface SNAP-GIPR expression ([7]; replicate 17): 0.7582 | Surface SNAP-GIPR expression ([7]; replicate 18): 0.6508 | Surface SNAP-GIPR expression ([7]; replicate 19): 0.4867 | Surface SNAP-GIPR expression ([7]; replicate 20): 0.616 | Surface SNAP-GIPR expression ([7]; replicate 21): 0.5336 | Surface SNAP-GIPR expression ([7]; replicate 22): 0.6715 | Surface SNAP-GIPR expression ([7]; replicate 23): 0.7341 | Surface SNAP-GIPR expression ([7]; replicate 24): 0.6837 | Surface SNAP-GIPR expression ([7]; replicate 25): 0.9077 | Surface SNAP-GIPR expression ([7]; replicate 26): 0.65 | Surface SNAP-GIPR expression ([7]; replicate 27): 0.7009 | Surface SNAP-GIPR expression ([7]; replicate 28): 0.5824 | Surface SNAP-GIPR expression ([7]; replicate 29): 0.9349 | Surface SNAP-GIPR expression ([7]; replicate 30): 0.779 | Surface SNAP-GIPR expression ([7]; replicate 31): 0.9227 | Surface SNAP-GIPR expression ([7]; replicate 32): 0.586 | Surface SNAP-GIPR expression ([7]; replicate 33): 0.6419 | Surface SNAP-GIPR expression ([7]; replicate 34): 0.7664 | Surface SNAP-GIPR expression ([7]; replicate 35): 0.5787 | Surface SNAP-GIPR expression ([7]; replicate 36): 0.8557 | Surface SNAP-GIPR expression ([7]; replicate 37): 0.7468 | Surface SNAP-GIPR expression ([7]; replicate 38): 0.7266 | Surface SNAP-GIPR expression ([7]; replicate 39): 0.577 | Surface SNAP-GIPR expression ([7]; replicate 40): 0.6491 | Surface SNAP-GIPR expression ([7]; replicate 41): 0.7544
